Four substances from article PMC5792032 can be followed below.

Series [1] relates to NS5A domain I WT (Hepatitis C virus JFH-1 (genotype 2a)). Put plainly: filter binding. The conditions noted are these: Binding buffer and temperature not given (as in ref 32); slot blot nitrocellulose/nylon, hyperbolic fit; protein dialyzed in 20 mM Tris-HCl pH 8.2, 150 mM ….
For another series, the target named is GST control protein. Briefly: GST pulldown, Western blot quantification (Li-Cor Odyssey Sa). Conditions: parent: est. 0.78; read off a plot.
Series [2] deals with NS5A domain I (35-215) P35A. Described as above. Conditions: parent: est. 7.4; read off a plot.
The target of series [3] is NS5A domain I (35-215) P145A. The series is described as above. Conditions: parent: est. 7.4; read off a plot.
The target of series [4] is NS5A domain I (35-215) V67A. The series is described as above. Conditions: parent: est. 7.4; read off a plot.

In the case of HCV 3'UTR RNA, the Kd (usually the constant that tells how readily two partners part at equilibrium) in series [1] was 246 nM.
With NS5A domain I (35-215), wild type P35A, the results for the response (in the series with GST control protein; in series [2]) were 0.34 and 2.5, respectively.
For NS5A domain I (35-215), wild type P145A, the response in the series with GST control protein stood at 0.34; in series [3], 1.3.
NS5A domain I (35-215), wild type V67A: the results for the response (with GST control protein; in series [4]) were 0.15 and 0.39, respectively.
